Results reported in the supplement of paper PMC12764529.
± gives the half width of the 95% confidence interval.

What was measured:
[1] = folding stability dG unfold (combined trypsin and chymotrypsin); higher = more stable
In short: (§1)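 Designed mini-proteins (under 80 residues, no cysteine) in a PA-tagged cDNA display construct were digested with trypsin and chymotrypsin. Each protease was used at 11 concentrations (threefold dilutions) plus a no-protease condition, followed by sequencing. K50 was inferred by Bayesian fitting of sequencing counts, and unfolding free energy was derived against a sequence-predicted unfolded-state K50 and a shared folded-state K50, per protease or combined. Only designs with AlphaFold2 dimer inter-PAE above 15 were kept.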

[2] = folding stability dG unfold from chymotrypsin proteolysis; higher = more stable
In short: as §1

[3] = folding stability dG unfold from trypsin proteolysis; higher = more stable
In short: as §1

Row | Sequence | folding stability dG unfold [1] [kcal/mol] | folding stability dG unfold [2] [kcal/mol] | folding stability dG unfold [3] [kcal/mol]
1 | SAGGSAGGSALPTSPTYAVVKVPDKYYIVKTKVGDIIFIPDENGIPVPVKVEPFYPIAPEALSAGGSAGGSA [r18_244_TrMRF] | -0.258 ± 0.18 | -0.515 ± 0.4 | -0.297 ± 0.16
2 | SAGGSAGGKPKMTFPITDIYPPPGGGNVFIRIQSDDKPREFPFPNLENLEIEKDPEDGTVKIKWSAGGSAGG [r6_806_TrROS] | -0.0766 ± 0.31 | 0.307 ± 0.39 | 0.129 ± 0.36
3 | SMKLIGVEEFENAKAVLFEKEDKYIKLVFIPEDIPEGEEIYYIKVFEGDEIIEEKAVKPEEIEEAIKEAGSA [r9_57_TrMRF] | 0.428 ± 0.21 | 0.643 ± 0.21 | 0.00129 ± 0.12
4 | SAGGVRYRNPLTGVEIPPDATEEERAAIARAVAKPVVLPVTVPVYVEEGDVVVPVERTFHVPLGPDGSAGGS [r16_387_TrMRF] | 0.206 ± 0.083 | 0.0948 ± 0.12 | 0.22 ± 0.085
5 | SAGGSEEVEEEPPVVVTVRLTIELTLADGSKVRVEVELVRTADGRLLLKIRVVNEDTGEVYEFTFPSAGGSA [r2_484_TrROS_Hall] | 4.6 ± 0.19 | 4.86 ± 0.23 | 3.31 ± 0.24
6 | SAGGSAGGKYEIVEVEEKEVNGEKYLIFKVKNENGEELLITVSKEDAEKILASLPPGATVEILPSAGGSAGG [r6_111_TrROS_Hall] | 3.84 ± 0.25 | 3.76 ± 0.14 | 3.49 ± 0.56
7 | SAGMPLYRIRVHPDIPDRIEITEVDAEDLPPGAVLKIRFRETGETVEVPLSDLDELLALPGIEEVELVSAGG [r19_302_TrROS_Hall] | 0.841 ± 0.12 | 1.11 ± 0.13 | 0.305 ± 0.077
8 | SAGGSAGGSGSLEKVFTGENKIITIKYLPDGKVIITLHDPSTPKPIAVIEAKPSEIEEILKKESAGGSAGGS [r20_129_TrMRF] | 1.76 ± 0.13 | 1.86 ± 0.076 | 1.24 ± 0.12
9 | SAGGMYVEVVIDNPDPDISPEELAEEVARELAPDPFEIKPVKIEPELIGGIPKVTILFEVDDPEAVEESAGG [r13_979_TrMRF] | 0.763 ± 0.056 | 0.958 ± 0.019 | 0.238 ± 0.049
10 | SAGGEKITIEVDGKKVTITKNEDGTITITIEHNGKVIKTITLPKNLEKITELTLTFNGKTYTITIEPSAGGS [r16_452_TrROS_Hall] | 4.97 ± 0.11 | 5.013 ± 0.048 | 3.9 ± 0.13
11 | SAMPVVTLKAKVTIHSDPNGIEEKEIEITVTFPDPNVGLEEAKKKAEEAIKEYAEKNGLKIELEEITIESAG [r14_190_JUSTAS] | 1.88 ± 0.09 | 2.06 ± 0.047 | 1.19 ± 0.08
12 | SAGGSAGGSAGGNEEDIEKAVKEAKEKGENAEVKVTLPNGKEETVYIEVNVKEPSEKLKSAGGSAGGSAGGS [r10_573_JUSTAS] | < -1 | -1.04 ± 0.22 | -1.05 ± 0.47
13 | SAGGSAKVKIEVSIEVSEDGTITITVRITNENGEELTVTITIKLPPAPTVVYDSEEERKKALEALASAGGSA [r15_1018_TrROS_Hall] | 2.38 ± 0.26 | 2.2 ± 0.19 | 2.9 ± 0.14
14 | SAGGSAGGSAGGSDYIMFRIPAPPGEKIEIPIPNGWEVEINPQPHNGRWYFMIKIPEDASAGGSAGGSAGGS [r4_360_TrROS] | 1.13 ± 0.12 | 1.09 ± 0.11 | 1.05 ± 0.085
15 | SAGGSAGGSAGGSSVKLTLPDGSQVTVDIHPDGTATVTTFPGDTPSVTNMPVSAFQAALPSAGGSAGGSAGG [r7_178_JUSTAS] | 2.08 ± 0.53 | 1.79 ± 0.21 | 1.72 ± 0.44
16 | SAGGPLEVTLVESETTFLPEGKVVTREVTRLPDDTILVTTYTTTIDPNSGTTTTTSETVVLPAGAALSAGGS [r16_639_JUSTAS] | 1.49 ± 0.032 | 0.627 ± 0.068 | 2.11 ± 0.046
17 | SAGGSAGGSAGGSMSSTVTTTLVEVGPPNGKRVLVRRTTTTFPDGSVTTTVTVLSTTIASAGGSAGGSAGGS [r4_496_JUSTAS] | 2.37 ± 0.063 | 2.61 ± 0.033 | 1.84 ± 0.027
18 | SAGGSAGGSGSVEFETDLKDPNIRKAIEEALKEGKKTAVIPFPDGAEGRIVEVEGDKVRVEISSAGGSAGGS [r12_334_TrMRF] | 0.838 ± 0.12 | 1.29 ± 0.099 | 0.0322 ± 0.15
19 | SAGGKIIAEGEFELEDGYVVRVKVEYDEETGELRVEVEVFEVEVELPEVEVKREFSDEELTEEEKEASAGGS [r8_461_TrROS_Hall] | 1.39 ± 0.25 | 1.77 ± 0.17 | 0.897 ± 0.19
20 | SAGGSAGGGMGPASFYIVTVDPNNPNVTKVESLSPSVDISLYRKKPFPIKTFSASNIEKLLKELSAGGSAGG [r6_864_JUSTAS] | 0.619 ± 0.11 | 0.791 ± 0.18 | 0.334 ± 0.12
21 | SAGGSAGGGMSFTLTSEKKVPGVNVTLTTVTGPGVTITYDPATGKATVEFPDSVTTVPLSSITTSAGGSAGG [r6_512_JUSTAS] | 0.597 ± 0.099 | 0.359 ± 0.16 | 0.573 ± 0.024
